Assay results reported in FireProtDB (doi:10.1016/0022-2836(92)90562-x).

B1: Ribonuclease, P00648 (parent)
chain: MMKMEGIALKKRLSWISVCLLVLVSAAGMLFSTAAKTETSSHKAHTEAQVINTFDGVADYLQTYHKLPDNYITKSEAQALGWVASKGNLADVAPGKSIGGDIFSNREGKLPGKSGRTWREADINYTSGFRNSDRILYSSDWLIYKTTDHYQTFTKIR

Variants of: B1
Conditions: Bacillus amyloliquefaciens; pH 6.3; 25 °C; Urea; Fluorescence; MES-NaOH 450 mM; reversible: yes; structure 1BNI; whole UniProt chain shown

Variant | ddG of mutation (higher = less stable) [kcal/mol] | denaturant m value [kcal/mol/M] | denaturant midpoint (higher = more stable) [M] | unfolding free energy [kcal/mol]
MMKMEGIALKKRLSWISVCLLVLVSAAGMLFSTAAKTETSSHKAHTEAQVINTFDGVADYLQTYHKLPDNYITKSEAQALGWVASKGNLADVAPGKSIGGDIFSNREGKLPGKSGRTWREADINYTSGFRNSDRILYSSDWLIYKTTDHFQTFTKIR | 0.18 | 1.89 | 4.5 | 8.64
MMKMEGIALKKRLSWISVCLLVLVSAAGMLFSTAAKTETSSHKAHTEAQVINTFDGVADYLQTYHKLPDNYITKSEAQALGWVASKGNLADVAPGKSIGGDIFSNREGKLPGKSGRTWREADINYTSGFRNSDRILYASDWLIYKTTDHYQTFTKIR | 2.41 | 1.79 | 3.5 | 6.41
MMKMEGIALKKRLSWISVCLLVLVSAAGMLFSTAAKTETSSHKAHTEAQVINTFDGVADYLQTYHKLPDNYITKSEAQALGWVASKGNLADVAPGKSIGGDTFSNREGKLPGKSGRTWREADINYTSGFRNSDRILYSSDWLIYKTTDHYQTFTKIR | 1.24 | 1.84 | 4.1 | 7.58
MMKMEGIALKKRLSWISVCLLVLVSAAGMLFSTAAKTETSSHKAHTEAQVINTFDGVADYLQTYHKLPDNYITKSEAQALGWVASKGNLADVAPGKSIGGDVFSNREGKLPGKSGRTWREADINYTSGFRNSDRILYSSDWLIYKTTDHYQTFTKIR | 0.63 | 1.85 | 4.4 | 8.19
MMKMEGIALKKRLSWISVCLLVLVSAAGMLFSTAAKTETSSHKAHTEAQVINTFDGVADYLQTYHKLPDNYITKSEAQALGWVASKGNLADVAPGKSIGGDIFSNREGKLPGKSGRTWREADINYTSGFRNSDRILYSADWLIYKTTDHYQTFTKIR | 3.22 | 1.78 | 3.1 | 5.6
MMKMEGIALKKRLSWISVCLLVLVSAAGMLFSTAAKTETSSHKAHTEAQVINTFDGVADYLQTYHKLPDNYITKSEAQALGWVASKGNLADVAPGKSIGGDIFSNREGKLPGKSGRTWREADINYTSGFRNSDRILYSSDWLIYKVTDHYQTFTKIR | 2.92 | 1.84 | 3.2 | 5.9
MMKMEGIALKKRLSWISVCLLVLVSAAGMLFSTAAKTETSSHKAHTEAQVINTFDGVADYLQTYHKLPDNYITKSEAQALGWVASKGNLADVAPGKSIGGDIFSNREGKLPGKSGRTWREADINYTSGFRASDRILYSSDWLIYKTTDHYQTFTKIR | 1.59 | 2.04 | 3.5 | 7.23
MMKMEGIALKKRLSWISVCLLVLVSAAGMLFSTAAKTETSSHKAHTEAQVINTFDGVADYLQTYHKLPDNYITKSEAQALGWVASKGNLADVAPGKSIGGDIFSNREGKLPGKSGRTWREADVNYTSGFRNSDRILYSSDWLIYKTTDHYQTFTKIR | 0.98 | 1.89 | 4.1 | 7.84
MMKMEGIALKKRLSWISVCLLVLVSAAGMLFSTAAKTETSSHKAHTEAQVINTFDGVADYLQTYHKLPDNYITKSEAQALGWVASKGNLADVAPGKSIGGDIFSNREGKLPGKSGRTWREADANYTSGFRNSDRILYSSDWLIYKTTDHYQTFTKIR | 1.66 | 1.99 | 3.6 | 7.16
MMKMEGIALKKRLSWISVCLLVLVSAAGMLFSTAAKTETSSHKAHTEAQVINTFDGVADYLQTYHKLPDNYITKSEAQALGWVASKGNLADVAPGKSIGGDIFSNREGKLPGKSGRTWREADINYTSGFRNSDRILYSSDWLIYKTTDHYQVFTKIR | 2.14 | 1.95 | 3.4 | 6.68
MMKMEGIALKKRLSWISVCLLVLVSAAGMLFSTAAKTETSSHKAHTEAQVINTFDGVADYLQTYHKLPDNYITKSEAQALGWVASKGNLADVAPGKSIGGDIFSNREGKLPGKSGRTWREADINYTSGFRNSDRILYSSDWLVYKTTDHYQTFTKIR | 1.02 | 1.9 | 4.1 | 7.8
MMKMEGIALKKRLSWISVCLLVLVSAAGMLFSTAAKTETSSHKAHTEAQVINTFDGVADYLQTYHKLPDNYITKSEAQALGWVASKGNLADVAPGKSIGGDIFSNREGKLPGKSGRTWREADINYTSGFRNSDRILYSSDWLAYKTTDHYQTFTKIR | 3.15 | 1.96 | 2.8 | 5.67
MMKMEGIALKKRLSWISVCLLVLVSAAGMLFSTAAKTETSSHKAHTEAQVINTFDGVADYLQTYHKLPDNYITKSEAQALGWVASKGNLADVAPGKSVGGDIFSNREGKLPGKSGRTWREADINYTSGFRNSDRILYSSDWLIYKTTDHYQTFTKIR | 1.13 | 2.11 | 3.6 | 7.69
MMKMEGIALKKRLSWISVCLLVLVSAAGMLFSTAAKTETSSHKAHTEAQVINTFDGVADYLQTYHKLPDNYITKSEAQALGWVASKGNLADVAPGKSAGGDIFSNREGKLPGKSGRTWREADINYTSGFRNSDRILYSSDWLIYKTTDHYQTFTKIR | 4.72 | 1.9 | 2.1 | 4.1
MMKMEGIALKKRLSWISVCLLVLVSAAGMLFSTAAKTETSSHKAHTEAQVINTFDGVADYLQTYHKLPDNYITKSEAQALGWVASKGNLADVAPGKSIGGDIFSNREGKLPGKSGRTWREADINYTSGFRNSDRALYSSDWLIYKTTDHYQTFTKIR | 4.02 | 1.94 | 2.4 | 4.8
MMKMEGIALKKRLSWISVCLLVLVSAAGMLFSTAAKTETSSHKAHTEAQVINTFDGVADYLQTYHKLPDNYITKSEAQALGWVASKGNLADVAPGKSIGGDIFSNREGKLPGKSGRTWREADINYTSGFRNSDRVLYSSDWLIYKTTDHYQTFTKIR | 1.64 | 1.85 | 3.8 | 7.18
MMKMEGIALKKRLSWISVCLLVLVSAAGMLFSTAAKTETSSHKAHTEAQVINTFDGVADYLQTYHKLPDNYITKSEAQALGWVASKGNLADVAPGKSIGGDIFSDREGKLPGKSGRTWREADINYTSGFRNSDRILYSSDWLIYKTTDHYQTFTKIR | -0.31 | 1.9 | 4.8 | 9.13
MMKMEGIALKKRLSWISVCLLVLVSAAGMLFSTAAKTETSSHKAHTEAQVINTFDGVADYLQTYHKLPDNYITKSEAQALGWVASKGNLADVAPGKSIGGDIFSAREGKLPGKSGRTWREADINYTSGFRNSDRILYSSDWLIYKTTDHYQTFTKIR | 2 | 1.97 | 3.4 | 6.82
MMKMEGIALKKRLSWISVCLLVLVSAAGMLFSTAAKTETSSHKAHTEAQVINTFDGVADYLQTYHKLPDNYITKSEAQALGWVASKGNLADVAPGKSIGGDIFSNREGKLPGKSGRTWREADINYTSGFRNSDRIVYSSDWLIYKTTDHYQTFTKIR | 0.47 | 1.89 | 4.4 | 8.35
MMKMEGIALKKRLSWISVCLLVLVSAAGMLFSTAAKTETSSHKAHTEAQVINTFDGVADYLQTYHKLPDNYITKSEAQALGWVASKGNLADVAPGKSIGGDIFSNREGKLPGKSGRTWREADINYTSGFRNSDRITYSSDWLIYKTTDHYQTFTKIR | 3.28 | 1.78 | 3.1 | 5.54
MMKMEGIALKKRLSWISVCLLVLVSAAGMLFSTAAKTETSSHKAHTEAQVINTFDGVADYLQTYHKLPDNYITKSEAQALGWVASKGNLADVAPGKSIGGDIFSNREGRLPGKSGRTWREADINYTSGFRNSDRILYSSDWLIYKTTDHYQTFTKIR | 0.32 | 1.95 | 4.3 | 8.5
MMKMEGIALKKRLSWISVCLLVLVSAAGMLFSTAAKTETSSHKAHTEAQVINTFDGVADYLQTYHKLPDNYITKSEAQALGWVASKGNLADVAPGKSIGGDIFSNREGKLPGKSGRTWREADIAYTSGFRNSDRILYSSDWLIYKTTDHYQTFTKIR | 1.45 | 1.98 | 3.7 | 7.37
MMKMEGIALKKRLSWISVCLLVLVSAAGMLFSTAAKTETSSHKAHTEAQVINTFDGVADYLQTYHKLPDNYITKSEAQALGWVASKGNLADVAPGKSIGGNIFSNREGKLPGKSGRTWREADINYTSGFRNSDRILYSSDWLIYKTTDHYQTFTKIR | 1.78 | 2.11 | 3.3 | 7.04
MMKMEGIALKKRLSWISVCLLVLVSAAGMLFSTAAKTETSSHKAHTEAQVINTFDGVADYLQTYHKLPDNYITKSEAQALGWVASKGNLADVAPGKSIGGAIFSNREGKLPGKSGRTWREADINYTSGFRNSDRILYSSDWLIYKTTDHYQTFTKIR | 2.86 | 1.95 | 3 | 5.96
MMKMEGIALKKRLSWISVCLLVLVSAAGMLFSTAAKTETSSHKAHTEAQVINTFDGVADYLQTYHKLPDNYITKSEAQALGWVASKGNLADVAPGKSIGGDIFSNREGKLPGKSGRTWREADINYTSGFRNSDRILYSSDWLIYKTTDHYQTFTKVR | 0.81 | 1.92 | 4.1 | 8.01
MMKMEGIALKKRLSWISVCLLVLVSAAGMLFSTAAKTETSSHKAHTEAQVINTFDGVADYLQTYHKLPDNYITKSEAQALGWVASKGNLADVAPGKSIGGDIFSNREGKLPGKSGRTWREADINYTSGFRNSDRILYSSDWLIYKTTDHYQTFTKAR | 1.27 | 2.15 | 3.5 | 7.55
MMKMEGIALKKRLSWISVCLLVLVSAAGMLFSTAAKTETSSHKAHTEAQVINTFDGVADYLQTYHKLPDNYITKSEAQALGWVASKGNLADVAPGKSIGGDIFSNREGKLPGKSGRTWREADINYTSGFRNSDRILYSSDWLIYKTTDHYQTFTKIA | -0.07 | 2.03 | 4.3 | 8.89
MMKMEGIALKKRLSWISVCLLVLVSAAGMLFSTAAKTETSSHKAHTEAQVINTFDGVADYLQTYHKLPDNYITKSEAQALGWVASKGNLADVAPGKSIGGDIFSNREGKLPGKSGRTWREADINFTSGFRNSDRILYSSDWLIYKTTDHYQTFTKIR | 1.14 | 1.98 | 3.8 | 7.68
